We go through one molecule from article PMC3618615 (Nature structural & molecular biology, 2013).

The target in this assay is T1, EYA2 Eya domain (EYA2ED) (human, UniProt O00167-1 253-538).
T1 sequence: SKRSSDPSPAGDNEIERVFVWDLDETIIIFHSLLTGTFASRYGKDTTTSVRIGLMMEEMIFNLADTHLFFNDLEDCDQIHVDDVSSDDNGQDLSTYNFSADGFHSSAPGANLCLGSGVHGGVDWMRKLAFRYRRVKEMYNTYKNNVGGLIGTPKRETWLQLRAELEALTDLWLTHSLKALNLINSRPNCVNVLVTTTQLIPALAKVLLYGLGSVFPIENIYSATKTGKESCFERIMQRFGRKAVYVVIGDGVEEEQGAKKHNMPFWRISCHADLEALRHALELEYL
Briefly: crystal structure.

B1: MBP-SIX1 (human SIX1 residues 1-189 fused to MBP_B) (domain or fragment, UniProt Q15475 1-189, looked up)
chain: MSMLPSFGFTQEQVACVCEVLQQGGNLERLGRFLWSLPACDHLHKNESVLKAKAVVAFHRGNFRELYKILESHQFSPHNHPKLQQLWLKAHYVEAEKLRGRPLGAVGKYRVRRKFPLPRTIWDGEETSYCFKEKSRGVLREWYAHNPYPSPREKRELAEATGLTTTQVSNWFKNRRQRDRAAEAKEREN
With B1, the binding result is listed as “binds”.
